Measurements published in article PMC3720919, “Mcm10 Self-Association Is Mediated by an N-Terminal Coiled-Coil Domain” (PLoS ONE, 2013).
“And” between values parts separate entries of the source, which are not always exact repeats. Equal entries are not always repeated.

Columns and labels:
[1] = target: the molecule itself; test: native gel or EMSA; native gel electrophoresis (4-16% Bis-Tris) of the NTD
[2] = target: the molecule itself; test: crystal structure; MBP-CC fusions at 50 mg/mL, sitting drop vapor diffusion, 16°C, sodium acetate pH 4.8; molecular replacement with MBPX(E)
[3] = target: the molecule itself; test: AUC; sedimentation velocity, 42,000 rpm, 20°C; 0.6 mg/ml in PBS pH 7.4, 150 mM NaCl, 0.3 mM TCEP
[4] = target: the molecule itself; test: AUC; sedimentation velocity, 42,000 rpm, 20°C; 0.6 mg/ml in 25 mM sodium acetate pH 4.7, 150 mM NaCl, 0.3 mM TCEP
[5] = target: the molecule itself; test: SEC-MALS; Superose6 10/300 GL, 0.4 ml/min, 25 mM Tris pH 7.5, 150 mM NaCl, 2% glycerol, 2 mM BME

B1: Mcm10-NTD (aa 1-145) L104A/L108A (2A mutant) (domain or fragment, Xenopus laevis, UniProt Q5EAW4 1-145, looked up)
chain: MEVDADLELLTSLLEENEAAERNGVVSHEASSELDEFDELFDGDEDGSYHGSDNGTEEQTIGGVEEDFTTLFGDIDDIKEEEAAASDTKKQSSSVCQEKSKDEAEDEARKMQAQMKKLQEQLQKTALAKTSSPGNPKKSPENKMV
notes: Mcm10, Xenopus laevis, residues 1-145 with L104A/L108A; also called NTD 2A
- binding result [1]: binds

B2: MBP-CC 95-124 (xMcm10 residues 95-124 fused to maltose binding protein) (domain or fragment, Xenopus laevis, UniProt Q5EAW4 95-124, looked up)
chain: VCQEKSKDELEDELRKMQAQMKKLQEQLQK
notes: Mcm10, Xenopus laevis, coiled-coil region, residues 95-124 (95-122 in the final model); Trimer in the crystal; dimer in sedimentation velocity; MBPX(E) as in PDB 3H4Z; also called xMcm10-CC^95–124; wild-type CC; source: E. coli C41, purified (amylose resin, Superdex S200); not shown: MBP (mutant form MBPX(E) residues 1-367; uncleavable linker AAAMG), N-terminal, kept
- stoichiometry N [2]: 3

B3: MBP-CC 95-132 (xMcm10 residues 95-132 fused to maltose binding protein) (domain or fragment, Xenopus laevis, UniProt Q5EAW4 95-132, looked up)
chain: VCQEKSKDELEDELRKMQAQMKKLQEQLQKTALAKTSS
notes: Mcm10, Xenopus laevis, coiled-coil region, residues 95-132; MBPX(E) as in PDB 3H4Z (search model); the linker in the 95-124 model is AAAMG; Calculated mass 45.1 kDa; source: E. coli C41, purified (amylose resin, Superdex S200); not shown: MBP (mutant form MBPX(E) from pMALX(E); short uncleavable linker), N-terminal, kept
- stoichiometry N [3]: 1.7 MBP-CC subunits
- stoichiometry N [4]: 3 and 2

B4: Full-length Xenopus laevis Mcm10 (natural protein, UniProt Q5EAW4 1-860, looked up)
chain: MEVDADLELLTSLLEENEAAERNGVVSHEASSELDEFDELFDGDEDGSYHGSDNGTEEQTIGGVEEDFTTLFGDIDDIKEEEAAASDTKKQSSSVCQEKSKDELEDELRKMQAQMKKLQEQLQKTALAKTSSPGNPKKSPENKMVQSGKTSRTSPLIERKKTDSNTVAPQLTSPTVPKAKLPDAPKRKQNLSDKSPVQKKMASFLSPPEKSSARPGQSTATQPITNTLKSPVGQQYHVEKFSGLRIRKPRVSSSEMERKMNGRKLIRLAQLQNKIATEKLEEEDWVTFGVIVKKITPQSSNNGKTFSIWRLNDLKDLDKYISLFLFGDVHKEHWKTDQGTVIGLLNANPMKPKEGTDEVCLSVDNPQKVLLMGDAVDLGTCKARKKNGDPCTQMVNLNDCEYCQYHVQAQYKKVSSKRADLQSSYSGHVPKKMARGANGLRERLCQGGFHYGGVSSMAYAATLGSTTAPKKTVQSTLSNMVVRGAEAIALEARQKIAAAKNVVQTDEFKELMTLPTPGALNLKKHLSGVSPQANCGKEGQPIQSISASTLLKQQKQQMLNARKKRAEESQKRFLESTEKSEKSSTLTSSACSVFQSPKQGAEFPNAQKMATPKLGRGFAEGDDVLFFDISPPPAPKLSTSAEAKKLLAIQKLQAKGQTLAKTDPNSIKRKRGSSSEELVAQRVASHASTSPKSPDENEPAIKKHRDQLAYLESEEFQKILNAKSKHTGILKEAEVEIQEHYFDPLVKKEQLEEKMQSIREQSCRVVTCKTCKYTHFKPKETCVSENHDFHWHNGVKRFFKCPCGNRTISLDRLPKKHCSTCGLFKWERVGMLKEKTGPKLGGETLLPRGEEHGKFLNSLK
notes: Minichromosome maintenance protein 10 (Mcm10), Xenopus laevis, full length (860 residues by the construct 230-860; calculated mass 95.4 kDa); also called xMcm10; full-length Mcm10; source: Hi-5 insect cells (baculovirus, Bac-to-Bac), purified (Ni-NTA, Source Q, Superose6 gel filtration)
- stoichiometry N [5]: ~2 Mcm10 subunits and ~3.4 Mcm10 subunits
